Test results reported in patent US20240279345A1, “ALPHA 5 BETA 1 INTEGRIN BINDING AGENTS AND USES THEREOF” (PASITHEA THERAPEUTICS CORP., priority 2021, published 2024).
Positions count from the first letter of the chain named. Names may count otherwise.

B1: A-15B08-T62A IgG4 Chimera (antibody, V domains shown)
VH: QVQLKESGPGLVAPSQSLSITCTISGFSLTSYGVHWVRQPPGKGLEWLVVIWSDGSTTYNSALKSRLSISKDNSKSQVFFKMNSLQTDDTAMYYCARHYDYDGDWFAYWGQGTLVTVSA
VL: QIVLTQSPAIMSASLGERVTMTCTASSRVSSNSLHWYQQKPGSSPKLWIYSTSNLASGVPARFSGSGSGTSYSLTISSMEAEDAATYYCHQYLRSPPTFGGGTKLEIK
B2: A2-7A05 IgG4 Chimera (antibody, V domains shown)
VH: QVQLQQPGAELVKPGASVKLSCKASGYTFTIYWINWVKQRPGQGLEWIGKIYPGSISTDYNEKFKSKATLTVDTSSSTAYMQLSSLTSDDSAVYYCAITGTGGLAYWGQGTLVTVSA
VL: ENVLTQSPAIMSASLGEKVTMTCRASSSVNYMYWYQQKSDASPKLWIYFTSSLAPGVPGRFSGSGSGNSYSLTISTMEGEDAATYYCQQFTTSPFTFGSGTKLEIK
B3: A-15B08 IgG4 Chimera (antibody, V domains shown)
VH: B1 VH with A62T
VL: B1 VL
B4: C-14D12 IgG4 Chimera (antibody, V domains shown)
VH: QVQLKESGPDLVAPSQSLSITCTVSGFSLTDYGVHWVRQPPGKGLEWLVVIWSDGSTTYNSALKSRLSITKDTSKRQVFLKMNSLQTDDTAMYYCARHAPSFIRYGSRYDALDYWGQGTSVTVSS
VL: B1 VL with M21L, R28S, S30T, N32S, S33F, L93H

Columns and labels:
[1] = test system: U87MG cell line; experiment: Plate-based cell adhesion assay of U87MG cells to FN; conditions: antibody 3 to 0.01 μg/mL
Experimental: Cell surface α5β1 integrin receptors interact with FN to promote cellular adhesion. To test whether the human IgG4 chimeric anti-α5β1 antibodies inhibit adhesion, a plate-based cell adhesion assay was developed for use with the U87MG cell line (HTB-14™, ATCC, Manassas, VA) which is derived from a Glioblastoma tumor and is known to express α5β1 integrin. U87MG cells were grown to 80% confluence in EMEM media (ATCC, Manassas, VA, cat. no. 30-2003) supplemented with 10% Fetal Bovine Serum (FBS; ATCC, Manassas, VA, cat. no. 30-2021) in a 5% C02, 37° C. incubator. Cells were dissociated from flasks with 0.05% Trypsin, 0.02% EDTA (Lifeline Cell Technology, Frederick, MD, cat. no. CM0017), washed once with Dulbecco's 1×PBS (DPBS) Modified which contains calcium and magnesium (HyClone, Logan, UT, cat. no. SH30028-02) and resuspended in EMEM media without supplementation at a cellular concentration of 2,000,000 cells per mL. Cells were rested in the incubator for 30 minutes before mixing with a six point 1:3 dilution series of the antibodies with final concentrations ranging from 3 to 0.01 μg/mL in a 96-well polypropylene round-bottom plate. 100,000 rested cells were pre-mixed with each dilution of antibody to a final volume of 100 μL and then transferred to a Human FN coated 96-well plate (R&D Systems, Minneapolis, MN, cat. no. CWP001). The cell-antibody mixtures were incubated for 1 hour at 37° C., 5% C02. Non-adhered cells were removed from the wells by inversion of the plate on an absorbent pad, then washed 2× with 200 uL each well with 1×DPBS without Calcium and Magnesium (EMD Millipore Corp, Billerica, MA, cat. no. TMS-012-A). 100 μL 1× DPBS containing Hoechst 33342 dye (Thermo Fisher Scientific, Waltham, MA, cat. no. 62249) at the recommended dilution (1:2000) was added to each well to fluorescently stain nuclei to facilitate cell counting. Cells that remained adhered to the wells were counted using image analysis software provided by the ImageXpress Pico Automated Cell Imaging System (Molecular Devices, San Jose, CA) which is based on counting fluorescently stained nuclei, in this case using a DAPI filter to detect the Hoechst nuclear staining. Non-linear regression analysis was used to fit curves (4-parameter) to the data using GraphPad Prism version 9.0.2 (GraphPad Software, LLC, San Diego, CA).

[2] = molecular target: α5β1 integrin on U87MG cells (human, UniProt P08648 42-1049; P05556 21-798); experiment: cell-based or functional assay
α5β1 integrin on U87MG cells, sequence (P08648 42-1049 limits assumed, chain 1 of 2): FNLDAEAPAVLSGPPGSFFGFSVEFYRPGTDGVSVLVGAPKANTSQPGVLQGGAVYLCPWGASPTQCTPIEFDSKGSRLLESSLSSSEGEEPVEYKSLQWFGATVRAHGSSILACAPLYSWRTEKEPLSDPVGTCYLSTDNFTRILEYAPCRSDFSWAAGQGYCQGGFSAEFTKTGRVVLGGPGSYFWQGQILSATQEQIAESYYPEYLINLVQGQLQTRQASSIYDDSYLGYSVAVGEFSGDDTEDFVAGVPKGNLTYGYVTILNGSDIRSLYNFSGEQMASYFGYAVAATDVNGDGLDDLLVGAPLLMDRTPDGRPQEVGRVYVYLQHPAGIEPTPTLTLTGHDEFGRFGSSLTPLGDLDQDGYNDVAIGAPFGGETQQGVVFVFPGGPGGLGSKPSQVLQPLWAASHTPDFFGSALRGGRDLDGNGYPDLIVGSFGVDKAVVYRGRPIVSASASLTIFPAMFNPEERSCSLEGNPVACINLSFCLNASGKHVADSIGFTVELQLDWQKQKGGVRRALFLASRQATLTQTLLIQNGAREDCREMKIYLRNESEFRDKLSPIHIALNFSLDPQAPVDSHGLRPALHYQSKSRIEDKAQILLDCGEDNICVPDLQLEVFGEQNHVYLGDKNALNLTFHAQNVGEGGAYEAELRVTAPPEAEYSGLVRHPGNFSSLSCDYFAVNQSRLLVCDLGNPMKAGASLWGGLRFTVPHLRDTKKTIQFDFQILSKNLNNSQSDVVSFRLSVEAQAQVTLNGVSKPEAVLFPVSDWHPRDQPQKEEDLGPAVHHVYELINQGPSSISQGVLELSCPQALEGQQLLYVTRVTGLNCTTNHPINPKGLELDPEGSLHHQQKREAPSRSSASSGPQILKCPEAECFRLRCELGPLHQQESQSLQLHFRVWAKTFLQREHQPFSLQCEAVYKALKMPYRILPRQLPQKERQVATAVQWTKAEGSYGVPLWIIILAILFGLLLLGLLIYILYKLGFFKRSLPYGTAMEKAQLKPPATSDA
α5β1 integrin on U87MG cells, sequence (P05556 21-798 limits assumed, chain 2 of 2): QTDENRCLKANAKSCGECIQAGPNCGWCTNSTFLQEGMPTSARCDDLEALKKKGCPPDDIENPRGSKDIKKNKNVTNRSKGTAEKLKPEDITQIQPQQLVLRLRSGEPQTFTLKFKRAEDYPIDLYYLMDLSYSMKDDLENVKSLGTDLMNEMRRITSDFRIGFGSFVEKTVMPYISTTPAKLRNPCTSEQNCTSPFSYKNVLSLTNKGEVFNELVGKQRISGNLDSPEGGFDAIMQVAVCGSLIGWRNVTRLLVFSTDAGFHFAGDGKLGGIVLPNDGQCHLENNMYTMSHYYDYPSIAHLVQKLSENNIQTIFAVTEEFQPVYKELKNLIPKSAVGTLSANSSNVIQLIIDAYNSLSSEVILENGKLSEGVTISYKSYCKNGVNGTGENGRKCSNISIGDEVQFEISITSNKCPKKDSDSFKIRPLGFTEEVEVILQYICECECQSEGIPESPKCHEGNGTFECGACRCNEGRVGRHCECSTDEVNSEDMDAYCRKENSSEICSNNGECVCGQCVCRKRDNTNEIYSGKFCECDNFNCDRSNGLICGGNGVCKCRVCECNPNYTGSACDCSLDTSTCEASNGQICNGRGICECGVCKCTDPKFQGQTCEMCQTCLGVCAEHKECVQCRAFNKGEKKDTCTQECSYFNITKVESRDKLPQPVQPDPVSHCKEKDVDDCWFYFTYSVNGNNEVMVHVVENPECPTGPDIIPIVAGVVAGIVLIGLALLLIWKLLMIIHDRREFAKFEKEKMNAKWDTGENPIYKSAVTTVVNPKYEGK

Molecule | IC50 [1] [µg/mL] | % Inhibition [2] [%] | Cell Counts (Curve Bottom) [2] [cells] | Cell Counts (Curve Top) [2] [cells]
B1 | 0.15 | 82 | 6320 | 35400
B2 | 0.27 | 25 | 28800 | 38200
B3 | 0.12 |  |  | 
B4 | 0.14 |  |  | 
